Patent publication US20150335719A1, “Intravitreal Injection of a Chimeric Phage Endolysin Ply187; Protection from Staphylococcus aureus Endophthalmitis” (priority 2014, published 2015)

Legend:
S. aureus = assay: Antimicrobial activity in the presence of calf vitreous humor in vitro; assay type: cell-based, Staphylococcus aureus; details: calf VH, 10^5 CFU, 2, 4 and 6 h
Description: FIGS. 4 A, B and C depict the effect of chimeric Ply187AN-KSH3b on bacterial growth in vivo and in the vitreous humor (VH) in vitro and with increasing inoculums in vitro respectively. […] Twenty-four hours after the treatment, the eyes were enucleated, homogenized and the bacterial burden was estimated via serial dilution plating. FIG. 4B depicts a test showing the effect of the vitreous humor on Ply187AN-KSH3b antimicrobial activity where Ply187AN-KSH3b was mixed with calf vitreous humor and inoculated with 10^5 CFU of S. aureus. The survival of the bacteria was enumerated by CFU count at 2, 4 and 6 h of incubation. Statistical analysis was performed using unpaired student's t test (*, p<0.05; **, p<0.005; ***, p<0.0005). […] An increasing number of dilutions (1:10,000 to 1:10) of logarithmic phase of S. aureus (RN6390 strain) were treated with Ply187AN-KSH3b for 1 h followed by CFU enumeration on TSA plates. Statistical analysis was performed using unpaired student's t test (*, p<0.05; **, p<0.005; ***, p<0.0005).
To determine the effect of Vitreous Humor (VH) on antimicrobial activity of chimeric Ply187AN-KSH3b in vitro, bacteria (10^5 CFU) were incubated with chimeric Ply187AN-KSH3b in the presence of calf VH. Following incubation at 37° C. for the desired time, bacterial growth in VH was enumerated by serial dilution plating. […]

[1] = test system: S. aureus RN6390 endophthalmitis; assay: Mouse S. aureus endophthalmitis: clinical score and slit lamp microscopy; assay type: in vivo, C57BL/6 mice; details: for mean clinical score: scored after 24 h, scale 0 to 4
Description: FIGS. 3A-3E show the effects of intravitreal injection of chimeric Ply187AN-KSH3b on the severity of S. aureus endophthalmitis. The eyes (n=10) of C57BL/6 mice were infected with S. aureus strain RN6390 and following either 6 h or 12 h post-infection, Ply187AN-KSH3b or EB (EB C) was administered by intravitreal injection. FIG. 3A depicts individual eyes assigned clinical scores (range 0 to 4; black dots represent an eye) and presented as mean clinical scores (bar with SEM). […] FIG. 3E depicts the total number of dead cells in the retinal sections that were counted and are presented as mean±SD of the TUNEL positive cells. A student's t test (**, p<0.005) was used for the statistical analysis and comparisons were made between the S. aureus (SA) control, SA+EBC, and SA+Ply187AN-KSH3b-treated group.
The eyes of C57BL/6 mice (female, 8 week old) were intravitreally injected with 1 μl of PBS containing 5000 colony forming units (CFU) of S. aureus RN6390 to induce endophthalmitis as described previously (Kumar et al., supra). The chimeric Ply187AN-KSH3b (1 μg/μl) treatment in EB was given after 6 h (group I) or 12 h (group II) post infection. In the control group, the eyes were treated with EB (EB C). The eye infected with S. aureus without any treatment was used as a disease control. Clinical examinations were performed using slit lamp microscopy. The ocular disease was graded, and clinical scores from 0 to 4.0 were assigned using the previously described scale (Whiston et al., supra; Ramadan et al. 2006. Curr. Eye Res. 31:955-965). The clinical score of 4 is considered as 100 percent damage. Based on this, the percent damage and percent retention of eyes were calculated in both Ply187AN-KSH3b-treated vs untreated S. aureus infected eyes. Mice were treated in compliance with the ARVO Statement for the Use of Animals in Ophthalmic and Vision Research and all procedures were approved by the Institutional Animal Care and Use Committee (IACUC) of Wayne State University.
We hypothesized that similar to antibiotics, chimeric Ply187AN-KSH3b would have beneficial effects in protecting the eyes from endophthalmitis. To test this hypothesis, we used a C57BL/6 mouse model of S. aureus endophthalmitis. Chimeric Ply187AN-KSH3b was administrated intravitreally (1 μg/eye in 1 μl volume of EB) 6 h and 12 h after bacterial infection. Eyes without any treatment or eyes injected with EB served as controls. After 24 h, each infected eye was assigned a clinical score.

B1: Ply187AN-KSH3b: staphylococcal peptidoglycan hydrolase fusion protein: endopeptidase domain of prophage endolysin Ply187 plus SH3b cell wall-binding domain of phage K endolysin LysK (SEQ ID NO:1) (protein)
chain: MALPKTGKPTAKQVVDWAINLIGSGVDVDGYYGRQCWDLPNYIFNRYWNFKTPGNARDMAWYRYPEGFKVFRNTSDFVPKPGDIAVWTGGNYNWNTWGHTGIVVGPSTKSYFYSVDQNWNNSNSYVGSPAAKIKHSYFGVTHFVRPAYKAEPKPTPPLESTPATRPVTGSWKKNQYGTWYKPENATFVNGNQPIVTRIGSPFLNAPVGGNLPAGATIVYDEVCIQAGHIWIGYNAYNGNRVYCPVRTCQGVPPNQIPGVAWGVFKVEHHHHHH
modifications: Chemically Synthesized Fusion Protein
killing activity in presence of vitreous humor (viable count) (S. aureus): does not adversely affect the killing activity | slit lamp microscopy appearance of eyes ([1]; 1 μg/eye intravitreal): clear/transparent corneas and/or anterior chambers | mean clinical score ([1]; treatment 6 h post infection, 1 μg/eye intravitreal): 0.2 | mean clinical score ([1]; treatment 12 h post infection, 1 μg/eye intravitreal): 0.3 | retention of eyes (conversion of clinical scores) ([1]; treatment group, clinical score 4 = 100 percent damage): 90-95%
